Experimental data: PMC3285366

Target: T1, Mps1(1–239) (human), P33981
T1 chain: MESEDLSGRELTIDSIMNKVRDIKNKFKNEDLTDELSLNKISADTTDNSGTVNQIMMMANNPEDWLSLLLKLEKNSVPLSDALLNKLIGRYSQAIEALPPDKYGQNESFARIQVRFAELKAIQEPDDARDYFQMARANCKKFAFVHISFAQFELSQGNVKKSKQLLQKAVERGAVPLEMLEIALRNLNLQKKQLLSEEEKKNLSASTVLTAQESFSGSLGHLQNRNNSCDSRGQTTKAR
Assay: SEC
Conditions: remark: other sources report otherwise

stoichiometry N: 2
B1: Mps1(1–239), P33981 1-239 (domain or fragment)
chain: T1 chain
